Measured values taken from patent publication US20150158912A1.
pKd: −log10 of the molar value.

What was measured:
[1] = target: crystallized mutant mouse IL-17RB-SEFIR (RB-SEFIR-M; K364A, K367A, K368A and K369A quadruple mutant, residues 325-486) (mouse) (UniProt Q9JIP3); assay: SPR; printed as Ka
[2] = target: wild type mouse IL-17RB-SEFIR (WT-RB-SEFIR) (mouse) (UniProt Q9JIP3); assay: SPR; printed as Ka
Chain of wild type mouse IL-17RB-SEFIR (WT-RB-SEFIR) (mouse) (Q9JIP3 314-486): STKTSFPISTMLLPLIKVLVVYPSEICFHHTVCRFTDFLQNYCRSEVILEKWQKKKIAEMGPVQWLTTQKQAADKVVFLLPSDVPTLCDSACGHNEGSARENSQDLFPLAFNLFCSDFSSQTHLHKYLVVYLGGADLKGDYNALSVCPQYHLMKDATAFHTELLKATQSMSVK

Chain of recombinant mouse Act1 SEFIR domain (mAct1-SEFIR, residues 391 to 537) (Q8N7N6 391-537): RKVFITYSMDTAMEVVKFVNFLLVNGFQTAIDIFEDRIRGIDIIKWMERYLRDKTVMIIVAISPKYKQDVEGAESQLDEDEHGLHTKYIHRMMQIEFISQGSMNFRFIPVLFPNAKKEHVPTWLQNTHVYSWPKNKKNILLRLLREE
Chain of crystallized mutant mouse IL-17RB-SEFIR (RB-SEFIR-M; K364A, K367A, K368A and K369A quadruple mutant, residues 325-486) (mouse) (Q9JIP3 325-486 K364A/K367A/K368A/K369A): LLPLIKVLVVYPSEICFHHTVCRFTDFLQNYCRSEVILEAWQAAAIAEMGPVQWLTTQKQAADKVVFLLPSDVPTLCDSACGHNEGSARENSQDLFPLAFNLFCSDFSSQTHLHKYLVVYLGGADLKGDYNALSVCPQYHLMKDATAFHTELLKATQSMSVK

pKd [1]: 5.82
pKd [2]: 5.85
Substance: recombinant mouse Act1 SEFIR domain (mAct1-SEFIR, residues 391 to 537) (from UniProt Q8N7N6 391-537)
